Test results published in publication PMC6358683 (Proceedings of the National Academy of Sciences of the …, 2019).

B1: C05 V110P (antibody, V domains shown)
VH: QVQLQESGGGLVQPGESLRLSCVGSGSSFGESTLSYYAVSWVRQAPGKGLEWLSIINAGGGDIDYADSVEGRFTISRDNSKETLYLQMTNLRVEDTGVYYCAKHMSMQQVPSAGWERADLVGDAFDVWGQGTMVTVSS
VL: DIQLTQSPSSLSASVGDRVTLTCQASQDIRKFLNWYQQKPGKGPKLLIYDASNLQRGVPSRFSGGGSGTDFTLIISSLQPEDVGTYYCQQYDGLPFTFGGGTKVVIK
B2: C05 A117E (antibody, V domains shown)
VH: QVQLQESGGGLVQPGESLRLSCVGSGSSFGESTLSYYAVSWVRQAPGKGLEWLSIINAGGGDIDYADSVEGRFTISRDNSKETLYLQMTNLRVEDTGVYYCAKHMSMQQVVSAGWEREDLVGDAFDVWGQGTMVTVSS
VL: DIQLTQSPSSLSASVGDRVTLTCQASQDIRKFLNWYQQKPGKGPKLLIYDASNLQRGVPSRFSGGGSGTDFTLIISSLQPEDVGTYYCQQYDGLPFTFGGGTKVVIK
B3: C05 V110P-A117E (antibody, V domains shown)
VH: QVQLQESGGGLVQPGESLRLSCVGSGSSFGESTLSYYAVSWVRQAPGKGLEWLSIINAGGGDIDYADSVEGRFTISRDNSKETLYLQMTNLRVEDTGVYYCAKHMSMQQVPSAGWEREDLVGDAFDVWGQGTMVTVSS
VL: DIQLTQSPSSLSASVGDRVTLTCQASQDIRKFLNWYQQKPGKGPKLLIYDASNLQRGVPSRFSGGGSGTDFTLIISSLQPEDVGTYYCQQYDGLPFTFGGGTKVVIK

What was measured:
[1] = biological target: HA of A/Thailand/CU44/2006 (Influenza A virus A/Thailand/CU44/2006 …, UniProt A7LI25, strain); test: ELISA
[2] = biological target: HA of A/Solomon Islands/03/2006 (Influenza A virus A/Solomon …, UniProt A7Y8I1, strain); test: ELISA

Binder	binding result [1]	binding result [2]
B1	binds	binds
B2	binds	binds
B3	binds	binds
